Test results from patent publication US20120107330A1 (published 2012).

B1: DOM1h-574-72 (other)
VH: EVQLLESGGGLVQPGGSLRLSCAASGFTFVKYSMGWVRQAPGKGLEWVSQISNTADRTYYAHSVKGRFTISRDNSKNTLYLQMNSLRAEDTAVYYCAIYTGRWVPFEYWGQGTLVTVSS
notes: VH dAb; expressed in E. coli, purified on Protein A
B2: DOM1h-574-109 (other)
VH: EVQLLESGGGLVQPGGSLRLSCAASGFTFVKYSMGWVRQAPGKGLEWVSQISDTADRTYYAHSVKGRFTISRDNSKNTLYLQMNSLRAEDTAVYYCAIYTGRWVPFEYWGQGTLVTVSS
notes: VH dAb
B3: DOM1h-574-135 (other)
VH: EVQLLESGGGLVQPGGSLRLSCAASGFTFVKYSMGWVRQAPGKGLEWVSQISDTADRTYYTHSVKGRFTISRDNSKNTLYLQMNSLRAEDTAVYYCAIYTGRWVPFEYWGQGTLVTVSS
notes: VH dAb
B4: DOM1h-574-133 (other)
VH: EVQLLESGGGLVQPGGSLRLSCAASGFTFVKYSMGWVRQAPGKGLEWVSQISDTADRTYYDHSVKGRFTISRDNSKNTLYLQMNSLRAEDTAVYYCAIYTGRWEPFVYWGQGTLVTVSS
notes: VH dAb
B5: DOM1h-574-155 (other)
VH: EVQLLESGGGLVQPGGSLRLSCAASGFTFLKYSMGWVRQAPGKGLEWVSQISDTADRTYYAHSVKGRFTISRDNSKNTLYLQMNSLRAEDTAVYYCAIYTGRWVPFEYWGQGTLVTVSS
notes: VH dAb
B6: DOM1h-574-138 (other)
VH: EVQLLESGGGLVQPGGSLRLSCAASGFTFFKYSMGWVRQAPGKGLEWVSQISDTADRTYYAHSVKGRFTISRDNSKNTLYLQMNSLRAEDTAVYYCAIYTGRWAPFEYWGQGTLVTVSS
notes: VH dAb
B7: DMS0184 (bispecific antibody)
chain: EVQLLESGGGLVQPGGSLRLSCAASGFTFVKYSMGWVRQAPGKGPEWVSQISNTGDRTYYADSVKGRFTISRDNSKNTLYLQMNSLRAEDTAVYYCAIYTGRWEPFDYWGQGTLVTVSSASTSGPSDIQMTQSPSSLSASVGDRVTITCRASRPIGTTLSWYQQKPGKAPKLLIWFGSRLQSGVPSRFSGSGSGTDFTLTISSLQPEDFATYYCAQAGTHPTTFGQGTKVEIKR
notes: anti-TNFR1 dAb / AlbudAb in-line fusion
B8: DMS0186 (bispecific antibody)
chain: EVQLLESGGGLVQPGGSLRLSCAASGFTFVKYSMGWVRQAPGKGPEWVSQISNTGDRTYYADSVKGRFTISRDNSKNTLYLQMNSLRAEDTAVYYCAIYTGRWEPFDYWGQGTLVTVSSASTDIQMTQSPSSLSASVGDRVTITCRASRPIGTMLSWYQQKPGKAPKLLILFGSRLQSGVPSRFSGSGSGTDFTLTISSLQPEDFATYYCAQAGTHPTTFGQGTKVEIKRAAAEQKLISEEDLN
notes: as for B7

Legend:
[1] = target: T1, human TNFR1 on MRC-5 cells (human, UniProt P19438 30-455); test: cell-based or functional assay
T1 sequence (looked up): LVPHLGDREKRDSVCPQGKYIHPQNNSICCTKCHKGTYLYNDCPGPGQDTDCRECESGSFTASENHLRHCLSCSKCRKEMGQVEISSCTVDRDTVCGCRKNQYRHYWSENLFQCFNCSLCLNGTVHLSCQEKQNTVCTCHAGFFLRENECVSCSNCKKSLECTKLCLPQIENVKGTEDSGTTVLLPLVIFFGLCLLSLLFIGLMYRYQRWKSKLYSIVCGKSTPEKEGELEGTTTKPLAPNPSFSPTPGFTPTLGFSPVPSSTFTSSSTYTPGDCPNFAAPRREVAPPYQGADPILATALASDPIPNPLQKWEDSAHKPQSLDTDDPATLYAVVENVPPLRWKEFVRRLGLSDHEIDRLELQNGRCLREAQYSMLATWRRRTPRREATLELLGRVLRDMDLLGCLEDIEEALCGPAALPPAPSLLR

[2] = target: T2, mouse TNFR1 on L929 cells (mouse, UniProt P25118 30-454); test: cell-based or functional assay
T2 sequence (looked up): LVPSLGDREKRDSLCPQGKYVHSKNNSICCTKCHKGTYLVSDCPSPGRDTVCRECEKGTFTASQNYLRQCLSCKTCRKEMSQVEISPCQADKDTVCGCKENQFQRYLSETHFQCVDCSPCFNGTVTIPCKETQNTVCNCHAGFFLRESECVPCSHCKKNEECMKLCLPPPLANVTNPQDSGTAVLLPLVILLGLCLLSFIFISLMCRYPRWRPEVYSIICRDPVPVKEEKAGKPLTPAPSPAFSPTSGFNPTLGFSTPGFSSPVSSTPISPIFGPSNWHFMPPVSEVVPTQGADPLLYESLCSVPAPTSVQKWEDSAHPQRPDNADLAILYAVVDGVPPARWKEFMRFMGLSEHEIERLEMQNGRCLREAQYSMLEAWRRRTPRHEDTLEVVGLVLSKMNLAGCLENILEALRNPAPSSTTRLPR

[3] = target: T3, Cynomologus monkey TNFR1 on CYNOM-K1 cells (Cynomolgus monkey, UniProt Q2PFV5 30-455); test: cell-based or functional assay
T3 sequence: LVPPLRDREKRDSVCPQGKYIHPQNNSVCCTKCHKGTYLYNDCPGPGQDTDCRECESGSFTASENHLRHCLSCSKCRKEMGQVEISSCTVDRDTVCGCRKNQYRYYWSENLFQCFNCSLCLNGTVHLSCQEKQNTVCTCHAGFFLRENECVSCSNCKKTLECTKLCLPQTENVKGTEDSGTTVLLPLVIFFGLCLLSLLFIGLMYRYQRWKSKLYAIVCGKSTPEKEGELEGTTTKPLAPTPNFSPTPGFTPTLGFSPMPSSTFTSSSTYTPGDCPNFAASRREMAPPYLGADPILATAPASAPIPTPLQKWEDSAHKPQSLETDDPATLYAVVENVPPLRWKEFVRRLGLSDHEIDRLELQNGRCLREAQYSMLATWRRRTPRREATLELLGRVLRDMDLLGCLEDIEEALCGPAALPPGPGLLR

[4] = target: T1, human TNFR1 on MRC-5 cells; test: cell-based or functional assay; remark: listed apart in the source
[5] = target: T4, human TNFR1 (recombinant, R&D Systems cat no. 636-R1/CF, biotinylated) (human, UniProt P19438 30-211, limits assumed, biotinylated with EZ-Link NHS-LC-LC-biotin); test: BIAcore, human TNFR1 on SA chip
T4 construct: it is not tied to the BIAcore reagent; also called p55; hTNFR1
T4 sequence (looked up): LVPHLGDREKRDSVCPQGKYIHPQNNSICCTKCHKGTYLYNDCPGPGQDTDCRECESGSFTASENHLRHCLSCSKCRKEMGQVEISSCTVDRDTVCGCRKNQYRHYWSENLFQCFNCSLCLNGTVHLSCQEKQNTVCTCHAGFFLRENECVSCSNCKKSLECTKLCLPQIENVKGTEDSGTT
Text: (§1) BIAcore was done to determine the association and dissociation rates of the different dAbs and in that way establish their binding affinity for both human and mouse TNFR1. Experiments were done using biotinylated TNFR1 (R&D Systems), of the respective species, coupled to streptavidin-coated BIAcore chips followed by injection of a concentration range of the dAbs.

[6] = target: T5, mouse TNFR1 (recombinant, R&D Systems cat no. 425-R1-050/CF, biotinylated) (mouse, UniProt P25118 22-212, biotinylated with EZ-Link NHS-LC-LC-biotin); test: BIAcore, mouse TNFR1 on SA chip
T5 construct: also called murine TNFR1; biotinylated mouse TNFR1
T5 sequence (looked up): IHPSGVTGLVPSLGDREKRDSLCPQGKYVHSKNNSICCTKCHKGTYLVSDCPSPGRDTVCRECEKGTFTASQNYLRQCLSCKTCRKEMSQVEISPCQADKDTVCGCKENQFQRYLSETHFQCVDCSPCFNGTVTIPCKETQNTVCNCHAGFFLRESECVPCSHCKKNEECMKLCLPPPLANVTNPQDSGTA
Text: as §1

[7] = target: T4, human TNFR1 (recombinant, R&D Systems …); test: BIAcore T100, biotinylated human TNFR1 on chip
Protocol: Furthermore, the affinity and potency of the purified fusion molecules were determined using a BIAcore T100 and the MRC5 cell assay, respectively. The BIAcore T100 is a highly sensitive BIAcore version ideally suited for determination of high affinity binders (Papalia et al., Anal Biochem. 359, p 112 (2006)). Biotinylated, human TNFR1 was coated on the chip and each of the twelve AlbudAb fusions were passed over this surface at four different concentrations (2, 10, 50 and 250 nM). […] This improvement is observed regardless of the AlbudAb used for pairing and largest for the pairings with DOM7h-14-18. A second experiment used to establish if the different pairings affected the functional activity of the anti-TNFR1 dAb was the MRC5 cell assay (Table 8). A more marked difference between the pairings is observed in the MRC5 assay, in which the best potencies are observed in pairings with DOM7h-11-3 and DOM7h-11-12 while pairings with DOM7h-14-10 (DMS0117) lead to significant decreases in potency.

[8] = target: T1, human TNFR1 on MRC-5 cells; test: cell-based or functional assay; remark: listed apart in the source
[9] = target: T6, human serum albumin (HSA, Sigma-Aldrich) (human, UniProt P02768 25-609); test: BIAcore, HSA on CM5 chip
T6 construct: also called human albumin
Protocol: (§2) FIG. 23. BIAcore analysis for binding of DOM0100-AlbudAb in-line fusions to human serum albumin (HSA). HSA (Sigma-Aldrich) was coated on a BIAcore CM5 chip using EDC/NHS chemistry according to manufacturer's instructions. Subsequently, the DMS constructs, each consisting N-terminally to C-terminally of an anti-TNFR1 dAb-Linker-AlbudAb and identified in Table 6, were injected at 1 μM over the HSA surface and binding was monitored. […] The corresponding BIAcore trace for each DMS clone is indicated with an arrow.

[10] = target: T7, mouse serum albumin (MSA, Sigma-Aldrich) (mouse, UniProt P07724 25-608); test: BIAcore, MSA on CM5 chip
T7 construct: also called mouse albumin
Protocol: as §2, with “22.” for “23.”, “mouse” for “human”, “(MSA). MSA” for “(HSA). HSA”, “MSA” for “HSA”
After expression and purification, all constructs were tested on the BIAcore for binding to both mouse and human serum albumin. The off-rates were determined and used to discriminate between the AlbudAbs for their suitability in prolonging the half-life of the fusion molecule. Whereas the linker had little influence on the affinity of the AlbudAb for albumin, a significant difference existed between the dAbs and their albumin affinity. The best AlbudAb for mouse binding was DOM7h-11-15 followed by DOM7m-16 and DOM7h-11-12 (FIG. 22).

T6 sequence (P02768 25-609 limits assumed): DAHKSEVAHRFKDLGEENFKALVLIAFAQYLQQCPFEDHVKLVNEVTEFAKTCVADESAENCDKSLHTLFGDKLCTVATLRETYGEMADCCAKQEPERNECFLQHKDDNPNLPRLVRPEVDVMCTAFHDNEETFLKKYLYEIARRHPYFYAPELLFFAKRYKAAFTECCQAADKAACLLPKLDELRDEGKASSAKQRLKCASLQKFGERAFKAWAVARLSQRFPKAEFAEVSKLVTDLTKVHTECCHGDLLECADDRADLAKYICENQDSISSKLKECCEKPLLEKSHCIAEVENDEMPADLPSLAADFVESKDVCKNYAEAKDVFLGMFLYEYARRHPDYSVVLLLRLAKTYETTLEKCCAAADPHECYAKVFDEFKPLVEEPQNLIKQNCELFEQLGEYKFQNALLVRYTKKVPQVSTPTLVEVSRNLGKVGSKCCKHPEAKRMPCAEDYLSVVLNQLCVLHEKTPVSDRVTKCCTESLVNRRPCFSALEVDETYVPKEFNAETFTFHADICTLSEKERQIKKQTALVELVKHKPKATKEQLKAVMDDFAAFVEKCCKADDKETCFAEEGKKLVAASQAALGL

Human MRC5 ND50 [1] [nM] | Mouse L929 ND50 [2] [nM] | Cynomologus CYNOM-K1 ND50 [3] [nM] | MRC5 (ND50 in nM) [4] [nM] | Kd [5] [nM] | koff [5] [s⁻¹] | kon [5] [M⁻¹ s⁻¹] | Kd [6] [nM] | koff [6] [s⁻¹] | kon [6] [M⁻¹ s⁻¹] | Kd [7] [nM] | koff [7] [s⁻¹] | kon [7] [M⁻¹ s⁻¹] | ND50 (MRC5) [8] [nM] | koff [9] [s⁻¹] | koff [10] [s⁻¹] | Binder
2.7 | 46 | 2.3 | 2.7 | 0.35 | 8.4e-05 | 250000 | 6.9 | 0.00068 | 100000 | 0.53 | 0.00011 | 200000 |  |  |  | B1
1.8 | 20 | 2.3 |  | 0.23 | 5.5e-05 | 240000 | 2.8 | 0.00033 | 120000 |  |  |  |  |  |  | B2
1.8 | 47 | 1.5 |  | 0.21 | 5.2e-05 | 250000 | 3.8 | 0.00045 | 110000 |  |  |  |  |  |  | B3
2.1 | 110 | 1.7 |  | 0.34 | 8.8e-05 | 260000 | 5.2 | 0.00075 | 140000 |  |  |  |  |  |  | B4
2.1 | 67 | 1.6 |  | 0.18 | 4.3e-05 | 240000 | 3.7 | 0.00033 | 110000 |  |  |  |  |  |  | B5
1.4 | 23 | 1.2 |  | 0.15 | 3.8e-05 | 250000 | 2.4 | 0.0003 | 130000 |  |  |  |  |  |  | B6
 |  |  |  |  |  |  |  |  |  |  |  |  | 19 | 0.16 | 0.72 | B7
 |  |  |  |  |  |  |  |  |  |  |  |  | 20 | 0.12 | 0.08 | B8
